Measurements from patent US20040167319A1 (Genmab, published 2004).
Residue numbers refer to the chain shown, from its start. Bridges are numbered along the chain shown (N, C = ends). Where no end group is shown, it is not given here. minicard = not defined here

Columns and labels:
[1] = target: T1, EPANPSEK of the second extracellular loop of human CD20 (human); experiment: Pepscan ELISA
T1 construct: not a peptide made as such
T1 peptide: EPANPSEK
Procedure: (§1) Pepscan ELISA-assay: The 455-well credit card-format polyethylene cards, containing the covalently linked peptides, were incubated with serum (diluted 1:1000 in blocking solution which contains 5% horse serum (v/v) and 5% ovalbumin (w/v)) (4° C., over night). After washing, the peptides were incubated with anti-human antibody peroxidase (dilution 1:1000, 1 hour, 25° C.), and after washing the peroxidase substrate, 2,2′-azino-di-3-ethylbenzthiazolin sulfonate and 2 μl/ml 3% H₂O₂ were added. After one hour, the color development was measured. The color development of the ELISA was quantified with a CCD-camera and an image processing system. The set up consists of a CCD-camera and a 55 mm lens (Sony CCD Video Camera XC-77RR, Nikon micro-nikk or 55 mm f/2.8 lens), a camera adaptor (Sony Camera adaptor DC-77RR) and the Image Processing Software package Optimas, version 6.5 (Media Cybernetics, Silver Spring, Md. 20910, U.S.A.). Optimas runs on a pentium II computer system.

KMECLNFIRAHCPYI = target: T2, KMECLNFIRAHCPYI (linker 4-12 via 1,3‑bis(bromomethyl)‑benzene (inferred); reading uncertain); experiment: Pepscan ELISA, 10 µg/ml
T2 construct: 15-mer looped Pepscan peptide derived from human CD20, Cys put in at two positions
T2 peptide: Ac-KMECLNFIRAHCPYI-minicard
Text: (§2) In some cases chemical linkage of the legs of a 15-mer peptide helps to identify amino acid sequences of a potentially discontinuous epitope. […] The 9- and 15-mers were synthesized as loops and screened using credit-card format mini-PEPSCAN cards (455 peptide format/card). In all looped peptides amino acids at varied positions were replaced by a cysteine (e.g., acetyl-XCXXXXXXXXCX-minicard). The peptides were synthesized using standard Fmoc-chemistry and deprotected using TFA with scavengers. Subsequently, the deprotected peptides were reacted on the microarray with an 0.5 mM solution of 1,3-bis(bromomethyl)-benzene in ammonium bicarbonate (20 mM, pH 7.9), supplemented with acetonitrile (1:1 (v/v)). The microarrays were gently shaken in the solution for 30-60 min, while completely covered in the solution. Finally, the microarrays were washed extensively with excess of Millipore H₂O and sonicated in disrupt-buffer containing 1% sodium dodecylsulfate, 0.1% β-mercaptoethanol, in PBS (pH 7.2) at 70° C. for 30 min, followed by sonication in millipore H₂O for another 45 min. Subsequently, the microwells were ready for screening in an ELISA-assay.
(§3) […] After washing, the peptides were incubated with anti-human antibody peroxidase (dilution 1:1000, 1 hour, 25° C.), and after washing the peroxidase substrate, 2,2′-azino-di-3-ethylbenzthiazolin sulfonate and 2 μl/ml 3% H₂O₂ were added. After one hour, the color development was measured. The color development of the ELISA was quantified with a CCD-camera and an image processing system.

KMESCNFIRACTPYI = target: T3, KMESCNFIRACTPYI (linker 5-11 via 1,3‑bis(bromomethyl)‑benzene (inferred); reading uncertain); experiment: Pepscan ELISA, 10 µg/ml
T3 construct: 15-mer looped Pepscan peptide derived from human CD20, Cys put in at two positions
T3 peptide: Ac-KMESCNFIRACTPYI-minicard
Text: as §2, §3

MESLCFIRAHCPYIN = target: T4, MESLCFIRAHCPYIN (linker 5-11 via 1,3‑bis(bromomethyl)‑benzene (inferred); reading uncertain); experiment: Pepscan ELISA, 10 µg/ml
T4 construct: 15-mer looped Pepscan peptide derived from human CD20, Cys put in at two positions
T4 peptide: Ac-MESLCFIRAHCPYIN-minicard
Text: as §2, §3

CFIRAHTPC = target: T5, CFIRAHTPC (linker 1-9 via 1,3‑bis(bromomethyl)‑benzene (inferred); not fully specified (C-terminus); also: covalently linked to minicard); experiment: Pepscan ELISA, 10 µg/ml
T5 construct: 9-mer looped Pepscan peptide derived from human CD20
T5 peptide: CFIRAHTPC
Text: as §2, §3

CIRAHTPYC = target: T6, CIRAHTPYC (linker 1-9 via 1,3‑bis(bromomethyl)‑benzene (inferred); not fully specified (C-terminus); also: covalently linked to minicard); experiment: Pepscan ELISA, 10 µg/ml
T6 construct: 9-mer looped Pepscan peptide derived from human CD20
T6 peptide: CIRAHTPYC
Text: as §2, §3

CRAHTPYIC = target: T7, CRAHTPYIC (linker 1-9 via 1,3‑bis(bromomethyl)‑benzene (inferred); not fully specified (C-terminus); also: covalently linked to minicard); experiment: Pepscan ELISA, 10 µg/ml
T7 construct: 9-mer looped Pepscan peptide derived from human CD20
T7 peptide: CRAHTPYIC
Text: as §2, §3

CAHTPYINC = target: T8, CAHTPYINC (linker 1-9 via 1,3‑bis(bromomethyl)‑benzene (inferred); not fully specified (C-terminus); also: covalently linked to minicard); experiment: Pepscan ELISA, 10 µg/ml
T8 construct: 9-mer looped Pepscan peptide derived from human CD20
T8 peptide: CAHTPYINC
Text: as §2, §3

PAGIYAP = target: T9, PAGIYAP (also: covalently linked to polyethylene card); experiment: Pepscan ELISA, 10 µg/ml
T9 construct: 7-mer Pepscan peptide derived from human CD20
T9 peptide: PAGIYAP
Text: as §2, §3

AGIYAPI = target: T10, AGIYAPI (also: covalently linked to polyethylene card); experiment: Pepscan ELISA, 10 µg/ml
T10 construct: 7-mer Pepscan peptide derived from human CD20
T10 peptide: AGIYAPI
Text: as §2, §3

GIYAPIC = target: T11, GIYAPIC (also: covalently linked to polyethylene card); experiment: Pepscan ELISA, 10 µg/ml
T11 construct: 7-mer Pepscan peptide derived from human CD20
T11 peptide: GIYAPIC
Text: as §2, §3

IYAPICV = target: T12, IYAPICV (also: covalently linked to polyethylene card); experiment: Pepscan ELISA, 10 µg/ml
T12 construct: 7-mer Pepscan peptide derived from human CD20
T12 peptide: IYAPICV
Text: as §2, §3

IYAPIAV = target: T13, IYAPIAV (also: covalently linked to polyethylene card); experiment: Pepscan ELISA, 10 µg/ml
T13 construct: 7-mer Pepscan peptide derived from human CD20 (A in place of the C of IYAPICV)
T13 peptide: IYAPIAV
Text: as §2, §3

PCINIYNAEPANPCE = target: T14, PCINIYNAEPANPCE (linker 2-14 via 1,3‑bis(bromomethyl)‑benzene (inferred); reading uncertain); experiment: Pepscan ELISA, 10 µg/ml
T14 construct: 15-mer looped Pepscan peptide derived from human CD20, Cys put in at two positions
T14 peptide: Ac-PCINIYNAEPANPCE-minicard
Text: as §2, §3

ICNAEPANPSEKNCP = target: T15, ICNAEPANPSEKNCP (linker 2-14 via 1,3‑bis(bromomethyl)‑benzene (inferred); reading uncertain); experiment: Pepscan ELISA, 10 µg/ml
T15 construct: 15-mer looped Pepscan peptide derived from human CD20, Cys put in at two positions
T15 peptide: Ac-ICNAEPANPSEKNCP-minicard
Text: as §2, §3

ECANPSEKNSPSTCY = target: T16, ECANPSEKNSPSTCY (linker 2-14 via 1,3‑bis(bromomethyl)‑benzene (inferred); reading uncertain); experiment: Pepscan ELISA, 10 µg/ml
T16 construct: 15-mer looped Pepscan peptide derived from human CD20, Cys put in at two positions
T16 peptide: Ac-ECANPSEKNSPSTCY-minicard
Text: as §2, §3

IPAGIYA = target: T17, IPAGIYA (also: covalently linked to polyethylene card); experiment: Pepscan ELISA, 100 µg/ml
T17 construct: 7-mer Pepscan peptide derived from human CD20
T17 peptide: IPAGIYA
Text: as §2, §3

[2] = target: T18, AGIYAP of the small first extracellular loop of human CD20 (human); experiment: Pepscan ELISA
T18 construct: not a peptide made as such
T18 peptide: AGIYAP
Procedure: as §1

[3] = target: T19, MESLNFIRAHTPYI of the second extracellular loop of human CD20 (human); experiment: Pepscan ELISA
T19 construct: not a peptide made as such
T19 peptide: MESLNFIRAHTPYI
Procedure: as §1

B1: 11B8 (antibody, IgG3, V domains shown)
VH: EVQLVQSGGGLVHPGGSLRLSCTGSGFTFSYHAMHWVRQAPGKGLEWVSIIGTGGVTYYADSVKGRFTISRDNVKNSLYLQMNSLRAEDMAVYYCARDYYGAGSFYDGLYGMDVWGQGTTVTVSS
VL: EIVLTQSPATLSLSPGERATLSCRASQSVSSYLAWYQQKPGQAPRLLIYDASNRATGIPARFSGSGSGTDFTLTISSLEPEDFAVYYCQQRSDWPLTFGGGTKVEIK
notes: Human monoclonal IgG3,κ from hybridoma
[1]
  binding result: no binding (tested: 10 µg/ml)
KMECLNFIRAHCPYI
  OD (absorbance): 763 OD
KMESCNFIRACTPYI
  OD (absorbance): 625 OD
MESLCFIRAHCPYIN
  OD (absorbance): 179 OD
CFIRAHTPC
  OD (absorbance): 188 OD
CIRAHTPYC
  OD (absorbance): 151 OD
CRAHTPYIC
  OD (absorbance): 427 OD
CAHTPYINC
  OD (absorbance): 179 OD
PAGIYAP
  OD (absorbance): 449 OD
AGIYAPI
  OD (absorbance): 251 OD
GIYAPIC
  OD (absorbance): 99 OD
IYAPICV
  OD (absorbance): 137 OD
IYAPIAV
  OD (absorbance): 161 OD
PCINIYNAEPANPCE
  OD (absorbance): 118 OD
ICNAEPANPSEKNCP
  OD (absorbance): 115 OD
ECANPSEKNSPSTCY
  OD (absorbance): 134 OD
IPAGIYA
  OD (absorbance): 950 OD

B2: 7D8 (antibody, IgG1, V domains shown)
VH: EVQLVESGGGLVQPDRSLRLSCAASGFTFHDYAMHWVRQAPGKGLEWVSTISWNSGTIGYADSVKGRFTISRDNAKNSLYLQMNSLRAEDTALYYCAKDIQYGNYYYGMDVWGQGTTVTVSS
VL: B1 VL with D93N, L96I, G100Q, K103R, V104L
notes: Human monoclonal IgG1,κ from hybridoma
[2]
  binding result: no binding (tested: 100 µg/ml)
[3]
  binding result: no binding (tested: 100 µg/ml)
[1]
  binding result: no binding (tested: 10 µg/ml)
KMECLNFIRAHCPYI
  OD (absorbance): 134 OD
KMESCNFIRACTPYI
  OD (absorbance): 142 OD
MESLCFIRAHCPYIN
  OD (absorbance): 127 OD
CFIRAHTPC
  OD (absorbance): 181 OD
CIRAHTPYC
  OD (absorbance): 186 OD
CRAHTPYIC
  OD (absorbance): 188 OD
CAHTPYINC
  OD (absorbance): 174 OD
PAGIYAP
  OD (absorbance): 170 OD
AGIYAPI
  OD (absorbance): 188 OD
GIYAPIC
  OD (absorbance): 152 OD
IYAPICV
  OD (absorbance): 174 OD
IYAPIAV
  OD (absorbance): 181 OD
PCINIYNAEPANPCE
  OD (absorbance): 163 OD
ICNAEPANPSEKNCP
  OD (absorbance): 165 OD
ECANPSEKNSPSTCY
  OD (absorbance): 179 OD

B3: 2F2 (antibody, V domains shown)
VH: B2 VH with D15G, H30N, T57S, N77K
VL: B1 VL with D93N, L96I, G100Q, K103R, V104L
modifications: FITC- or 125I-labelled in some assays; F(ab')2 fragments in some; the letters do not carry this
notes: Human monoclonal IgG1,κ from hybridoma; also called 4C9; HuMab 2F2 (hybridoma-derived)
KMECLNFIRAHCPYI
  OD (absorbance): 48 OD
KMESCNFIRACTPYI
  OD (absorbance): 39 OD
MESLCFIRAHCPYIN
  OD (absorbance): 41 OD
CFIRAHTPC
  OD (absorbance): 91 OD
CIRAHTPYC
  OD (absorbance): 57 OD
CRAHTPYIC
  OD (absorbance): 48 OD
CAHTPYINC
  OD (absorbance): 42 OD
PAGIYAP
  OD (absorbance): 43 OD
AGIYAPI
  OD (absorbance): 44 OD
GIYAPIC
  OD (absorbance): 34 OD
IYAPICV
  OD (absorbance): 58 OD
IYAPIAV
  OD (absorbance): 62 OD
PCINIYNAEPANPCE
  OD (absorbance): 65 OD
ICNAEPANPSEKNCP
  OD (absorbance): 43 OD
ECANPSEKNSPSTCY
  OD (absorbance): 68 OD
IPAGIYA
  OD (absorbance): 85 OD
